Patent publication US20240317847A1 (Bayer, published 2024)

Experiments:
[1] = target: T1, murine IL-11 (Invigate, e.g., lot #C210819-09) (mouse, UniProt P47873 22-199); assay: SPR, Biacore 8K; antibody captured on anti-human IgG Fc chip, IL-11 analyte 0-50 nM, 1:1 fit
T1 construct: Bought protein; biotinylated where captured on streptavidin plates; also called mIL-11; mIL11
T1 sequence: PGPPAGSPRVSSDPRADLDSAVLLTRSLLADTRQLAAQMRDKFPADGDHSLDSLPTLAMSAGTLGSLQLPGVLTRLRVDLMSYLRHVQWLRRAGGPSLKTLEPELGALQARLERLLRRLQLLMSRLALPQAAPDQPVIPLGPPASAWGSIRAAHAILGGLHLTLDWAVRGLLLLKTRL
Protocol: (§1) Antibody binding affinity to hIL-11 (Invigate, Germany, e.g., lot #C121021-19) and mIL-11 (Invigate, Germany, e.g., lot #C210819-09) was detected using Biacore 8K. Each antibody was captured on an anti-human IgG Fc antibody immobilized CM5 sensor chip (GE). hIL-11 and mIL-11 at different concentrations (0, 5, 15.82 and 50 nM) in 1×HBS-EP+ (pH 7.4) (GE healthcare) were injected over the sensor chip at a flow rate of 30 μL/min for an association phase of 120 s, followed by 200 s dissociation phase. The chip was then regenerated by 10 mM Glycine, pH 1.5 after each binding cycle.
(§2) The sensorgrams of blank surface and buffer channel were subtracted from the test sensorgrams. The experimental data was fitted by 1:1 model using Langmiur analysis. Molecular weight of 19.3 kDa was used to calculate the molar concentration of human and mouse IL-11.

[2] = target: T2, human IL-11 (Invigate, e.g., lot #C121021-19) (human, UniProt P20809 22-199); assay: as above
T2 construct: Bought protein; also called hIL-11; hIL11
T2 sequence: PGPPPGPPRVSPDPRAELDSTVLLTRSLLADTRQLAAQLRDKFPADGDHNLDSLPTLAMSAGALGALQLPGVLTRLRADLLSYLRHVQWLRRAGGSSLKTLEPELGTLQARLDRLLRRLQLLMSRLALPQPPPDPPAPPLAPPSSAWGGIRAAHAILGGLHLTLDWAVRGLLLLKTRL
Protocol: as §1, §2

Kd [1]	Kd [2]	Binder
13 nM	9.3 nM	TPP-31298 (antibody, human IgG4, V domains shown, consecutive numbering; also called VL-N97S) VH: EVQLLESGGGLVQPGGSLRLSCAASGFTFSHYDMNWLRQAPGKGLEWVGVISYDGSNKFYADFVKGRFTISRDNSKNTLYLQMNSLRAEDTAVYYCARTPGSHFDYWGQGTLVTVSS VL: QSVLTQPPSASGTPGQRVTISCSGSSSNIGNNAVNWYQQLPGTAPKLLIYYDDLLPSGVPDRFSGSKSGTSASLAISGLRSEDEADYYCSAWDDSLSGVVFGGGTKLTVL
58 nM	87 nM	TPP-31311 (antibody, human IgG4, V domains shown, consecutive numbering; also called VH-G55S / VL-G98A) VH: EVQLLESGGGLVQPGGSLRLSCAASGFTFSHYDMNWLRQAPGKGLEWVGVISYDSSNKFYADFVKGRFTISRDNSKNTLYLQMNSLRAEDTAVYYCARTPGSHFDYWGQGTLVTVSS VL: QSVLTQPPSASGTPGQRVTISCSGSSSNIGNNAVNWYQQLPGTAPKLLIYYDDLLPSGVPDRFSGSKSGTSASLAISGLRSEDEADYYCSAWDDSLNAVVFGGGTKLTVL
53 nM	41 nM	TPP-31309 (antibody, human IgG4, V domains shown, consecutive numbering; also called VH-G55S / VL-N97Q) VH: EVQLLESGGGLVQPGGSLRLSCAASGFTFSHYDMNWLRQAPGKGLEWVGVISYDSSNKFYADFVKGRFTISRDNSKNTLYLQMNSLRAEDTAVYYCARTPGSHFDYWGQGTLVTVSS VL: QSVLTQPPSASGTPGQRVTISCSGSSSNIGNNAVNWYQQLPGTAPKLLIYYDDLLPSGVPDRFSGSKSGTSASLAISGLRSEDEADYYCSAWDDSLQGVVFGGGTKLTVL
23 nM	15 nM	TPP-31306 (antibody, human IgG4, V domains shown, consecutive numbering; also called VH-G55A / VL-N97S) VH: EVQLLESGGGLVQPGGSLRLSCAASGFTFSHYDMNWLRQAPGKGLEWVGVISYDASNKFYADFVKGRFTISRDNSKNTLYLQMNSLRAEDTAVYYCARTPGSHFDYWGQGTLVTVSS VL: QSVLTQPPSASGTPGQRVTISCSGSSSNIGNNAVNWYQQLPGTAPKLLIYYDDLLPSGVPDRFSGSKSGTSASLAISGLRSEDEADYYCSAWDDSLSGVVFGGGTKLTVL
16 nM	18 nM	TPP-31299 (antibody, human IgG4, V domains shown, consecutive numbering; also called VL-G98A) VH: EVQLLESGGGLVQPGGSLRLSCAASGFTFSHYDMNWLRQAPGKGLEWVGVISYDGSNKFYADFVKGRFTISRDNSKNTLYLQMNSLRAEDTAVYYCARTPGSHFDYWGQGTLVTVSS VL: QSVLTQPPSASGTPGQRVTISCSGSSSNIGNNAVNWYQQLPGTAPKLLIYYDDLLPSGVPDRFSGSKSGTSASLAISGLRSEDEADYYCSAWDDSLNAVVFGGGTKLTVL
3.6 nM	6.9 nM	TPP-31303 (antibody, human IgG4, V domains shown, consecutive numbering; also called VH-D54E / VL-G98A) VH: EVQLLESGGGLVQPGGSLRLSCAASGFTFSHYDMNWLRQAPGKGLEWVGVISYEGSNKFYADFVKGRFTISRDNSKNTLYLQMNSLRAEDTAVYYCARTPGSHFDYWGQGTLVTVSS VL: QSVLTQPPSASGTPGQRVTISCSGSSSNIGNNAVNWYQQLPGTAPKLLIYYDDLLPSGVPDRFSGSKSGTSASLAISGLRSEDEADYYCSAWDDSLNAVVFGGGTKLTVL
23 nM	15 nM	TPP-31304 (antibody, human IgG4, V domains shown, consecutive numbering; also called VH-G55A) VH: EVQLLESGGGLVQPGGSLRLSCAASGFTFSHYDMNWLRQAPGKGLEWVGVISYDASNKFYADFVKGRFTISRDNSKNTLYLQMNSLRAEDTAVYYCARTPGSHFDYWGQGTLVTVSS VL: QSVLTQPPSASGTPGQRVTISCSGSSSNIGNNAVNWYQQLPGTAPKLLIYYDDLLPSGVPDRFSGSKSGTSASLAISGLRSEDEADYYCSAWDDSLNGVVFGGGTKLTVL
3.2 nM	3.8 nM	TPP-31302 (antibody, human IgG4, V domains shown, consecutive numbering; also called VH-D54E/VL-N97S) VH: EVQLLESGGGLVQPGGSLRLSCAASGFTFSHYDMNWLRQAPGKGLEWVGVISYEGSNKFYADFVKGRFTISRDNSKNTLYLQMNSLRAEDTAVYYCARTPGSHFDYWGQGTLVTVSS VL: QSVLTQPPSASGTPGQRVTISCSGSSSNIGNNAVNWYQQLPGTAPKLLIYYDDLLPSGVPDRFSGSKSGTSASLAISGLRSEDEADYYCSAWDDSLSGVVFGGGTKLTVL
25 nM	15 nM	TPP-31305 (antibody, human IgG4, V domains shown, consecutive numbering; also called VH-G55A / VL-N97Q) VH: EVQLLESGGGLVQPGGSLRLSCAASGFTFSHYDMNWLRQAPGKGLEWVGVISYDASNKFYADFVKGRFTISRDNSKNTLYLQMNSLRAEDTAVYYCARTPGSHFDYWGQGTLVTVSS VL: QSVLTQPPSASGTPGQRVTISCSGSSSNIGNNAVNWYQQLPGTAPKLLIYYDDLLPSGVPDRFSGSKSGTSASLAISGLRSEDEADYYCSAWDDSLQGVVFGGGTKLTVL
2.9 nM	3.6 nM	TPP-31301 (antibody, human IgG4, V domains shown, consecutive numbering; also called VH-D54E / VL-N97Q) VH: EVQLLESGGGLVQPGGSLRLSCAASGFTFSHYDMNWLRQAPGKGLEWVGVISYEGSNKFYADFVKGRFTISRDNSKNTLYLQMNSLRAEDTAVYYCARTPGSHFDYWGQGTLVTVSS VL: QSVLTQPPSASGTPGQRVTISCSGSSSNIGNNAVNWYQQLPGTAPKLLIYYDDLLPSGVPDRFSGSKSGTSASLAISGLRSEDEADYYCSAWDDSLQGVVFGGGTKLTVL
43 nM	40 nM	TPP-31310 (antibody, human IgG4, V domains shown, consecutive numbering; also called VH-G55S / VL-N97S) VH: EVQLLESGGGLVQPGGSLRLSCAASGFTFSHYDMNWLRQAPGKGLEWVGVISYDSSNKFYADFVKGRFTISRDNSKNTLYLQMNSLRAEDTAVYYCARTPGSHFDYWGQGTLVTVSS VL: QSVLTQPPSASGTPGQRVTISCSGSSSNIGNNAVNWYQQLPGTAPKLLIYYDDLLPSGVPDRFSGSKSGTSASLAISGLRSEDEADYYCSAWDDSLSGVVFGGGTKLTVL
47 nM	40 nM	TPP-31308 (antibody, human IgG4, V domains shown, consecutive numbering; also called VH-G55S) VH: EVQLLESGGGLVQPGGSLRLSCAASGFTFSHYDMNWLRQAPGKGLEWVGVISYDSSNKFYADFVKGRFTISRDNSKNTLYLQMNSLRAEDTAVYYCARTPGSHFDYWGQGTLVTVSS VL: QSVLTQPPSASGTPGQRVTISCSGSSSNIGNNAVNWYQQLPGTAPKLLIYYDDLLPSGVPDRFSGSKSGTSASLAISGLRSEDEADYYCSAWDDSLNGVVFGGGTKLTVL
28 nM	31 nM	TPP-31307 (antibody, human IgG4, V domains shown, consecutive numbering; also called VH-G55A / VL-G98A) VH: EVQLLESGGGLVQPGGSLRLSCAASGFTFSHYDMNWLRQAPGKGLEWVGVISYDASNKFYADFVKGRFTISRDNSKNTLYLQMNSLRAEDTAVYYCARTPGSHFDYWGQGTLVTVSS VL: QSVLTQPPSASGTPGQRVTISCSGSSSNIGNNAVNWYQQLPGTAPKLLIYYDDLLPSGVPDRFSGSKSGTSASLAISGLRSEDEADYYCSAWDDSLNAVVFGGGTKLTVL
3 nM	3.8 nM	TPP-31300 (antibody, human IgG4, V domains shown, consecutive numbering; also called VH-D54E) VH: EVQLLESGGGLVQPGGSLRLSCAASGFTFSHYDMNWLRQAPGKGLEWVGVISYEGSNKFYADFVKGRFTISRDNSKNTLYLQMNSLRAEDTAVYYCARTPGSHFDYWGQGTLVTVSS VL: QSVLTQPPSASGTPGQRVTISCSGSSSNIGNNAVNWYQQLPGTAPKLLIYYDDLLPSGVPDRFSGSKSGTSASLAISGLRSEDEADYYCSAWDDSLNGVVFGGGTKLTVL
